# Values quoted from earlier work as cited in patent publication US9925277B2, “Polynucleotide compositions containing amino acids” (ModernaTX, Inc., priority 2013, dated 2018).
# Target: Factor IX (Homo sapiens, UniProt P00740, R384L)
# Conditions: mutation at position R338L
# Sequence of Factor IX (P00740 47-461 R384L): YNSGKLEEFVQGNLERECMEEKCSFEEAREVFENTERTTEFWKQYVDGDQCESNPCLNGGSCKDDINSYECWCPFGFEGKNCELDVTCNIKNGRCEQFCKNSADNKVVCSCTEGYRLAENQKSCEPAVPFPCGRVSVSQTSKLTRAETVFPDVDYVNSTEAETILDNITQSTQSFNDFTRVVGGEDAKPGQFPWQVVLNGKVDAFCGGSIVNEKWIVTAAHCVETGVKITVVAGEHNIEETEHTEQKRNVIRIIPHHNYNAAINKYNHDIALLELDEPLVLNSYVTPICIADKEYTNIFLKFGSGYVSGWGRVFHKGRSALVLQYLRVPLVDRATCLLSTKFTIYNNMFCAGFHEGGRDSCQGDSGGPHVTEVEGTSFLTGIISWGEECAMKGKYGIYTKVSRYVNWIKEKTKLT
substance,measurement,value
"FIX Padua: Factor IX protein with mutation at position R338L, hyperactive naturally occurring variant",increased activity of Factor IX protein,10 fold
